# Measurements reported in PMC4335062, “Data-Driven Prediction and Design of bZIP Coiled-Coil Interactions” (PLoS Computational Biology, 2015).
# Where two headings read alike, the source gives them in different places. Where no end group is shown, it is not given here.
# T1: XBP1 (Homo sapiens, UniProt P17861)
# T1 construct: made in house
# T1 sequence (P17861 70-133 limits assumed): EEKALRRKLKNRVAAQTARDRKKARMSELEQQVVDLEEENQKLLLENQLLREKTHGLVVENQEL
# T2: ATF3 (Homo sapiens, UniProt P18847)
# T2 construct: made in house
# T2 sequence (P18847 86-149 limits assumed): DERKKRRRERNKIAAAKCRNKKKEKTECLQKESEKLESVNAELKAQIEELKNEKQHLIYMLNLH
# T3: Activating Transcription Factor 4 (ATF4) bZIP construct, C-terminally fluoresceinated (human, UniProt P18848 278-351, fluorescein at the C-terminus)
# T3 construct: source: previously described, donated by A.W. Reinke [18]
# T3 sequence (looked up): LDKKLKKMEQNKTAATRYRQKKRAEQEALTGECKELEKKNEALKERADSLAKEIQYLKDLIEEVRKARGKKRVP
# Columns and labels:
# XBP1 = target: T1, XBP1; assay: Direct-binding FRET assay; settings: C-terminal rhodamine design
# Protocol: (§1) The direct binding assay was performed manually in 384-well plates and is similar to a previously described assay. Wells were filled with 20 μL of 1 mM TCEP-HCl. A 4 μM stock of acceptor protein was made fresh in 1 mM TCEP-HCl, and 20 μL was titrated in 2-fold dilutions over the wells. […] The direct-binding FRET data were fit as previously described. Briefly, the Kd of the designed peptide homodimer was experimentally determined and used with previously determined target homodimer Kd values to determine the heterodimer Kd. The homodimer Kd values used for the human bZIPs were from; experiments done by […] et al. used the same protein constructs for the human bZIP proteins, the same buffer conditions, and the same assay. The fitting used a system of ordinary differential equations to describe the concentrations of homo and heterodimers formed by the donor (D) and acceptor (A) as a function of the heterodimer Kd. MATLAB was used to simulate the binding experiment for different Kd values, and the value that gave the best agreement between simulation and experiment was assigned. A minimum 15% change in the donor fluorescence upon titrating the acceptor peptide from 0 to 1000 nM was required for a fit to be attempted. If this minimum was not met, the interaction was classified as “NS” for no signal change. […] For such curves, we removed the first five points and re-fit the data.
# XBP1 bZIP (Homo sapiens) = XBP1 bZIP (Homo sapiens) (UniProt P17861); settings: cited from earlier work
# ATF3 = target: T2, ATF3; assay: Direct-binding FRET assay; settings: C-terminal rhodamine design, mean or single, read-out: Kd
# Protocol: as §1
# JUN = JUN (Homo sapiens, UniProt P05412); assay: Direct-binding FRET assay; set-up: made in house; settings: 37°C; C-terminal rhodamine design; mean or single; read-out: Kd
# Protocol: as §1
# [1] = target: BATF2 bZIP, C-terminally fluoresceinated (human) (UniProt Q8N1L9); assay: FRET or BRET; direct-binding FRET at 4°C; 10 nM fluorescein-labelled bZIP (donor), rhodamine-labelled design (acceptor) titrated 0 to 1 μM; 150 mM KCl, 50 mM potassium phosphate pH 7.4, 0.1% Tween-20, 0.1% BSA
# [2] = target: partner bZIP coiled coil (Protein2); settings: cited from earlier work
# Protocol: Supplement pcbi.1004046.s020.csv, table | column: Kd || Fig 4 Designed bZIP-binding peptides inhibit interactions of native bZIP dimers. […] The dissociation constants at the indicated temperatures are Kd ≤ 1 nM for FOS-JUN, Kd ≤1 nM for XBP1-CREBZF, and Kd = 60 nM for ATF4-FOS, according to [18]. Fluorescence intensities were measured at both 37°C and 23°C, a ...
# [3] = target: T3, Activating Transcription Factor 4 …; assay: FRET or BRET; direct-binding FRET at 37°C; 10 nM fluorescein-labelled bZIP (donor), rhodamine-labelled design (acceptor) titrated 0 to 1 μM; 150 mM KCl, 50 mM potassium phosphate pH 7.4, 0.1% Tween-20, 0.1% BSA; settings: both partners purified
# Chain of BATF2 bZIP, C-terminally fluoresceinated (human) (Q8N1L9 whole entry): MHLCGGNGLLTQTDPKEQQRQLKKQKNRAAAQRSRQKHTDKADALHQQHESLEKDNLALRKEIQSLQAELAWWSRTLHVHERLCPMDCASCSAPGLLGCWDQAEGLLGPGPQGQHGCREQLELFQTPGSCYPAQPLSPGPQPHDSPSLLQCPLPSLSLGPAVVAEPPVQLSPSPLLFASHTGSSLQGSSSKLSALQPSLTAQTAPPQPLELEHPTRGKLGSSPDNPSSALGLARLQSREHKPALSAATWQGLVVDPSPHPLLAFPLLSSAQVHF
# Chain of XBP1 bZIP (P17861 67-136): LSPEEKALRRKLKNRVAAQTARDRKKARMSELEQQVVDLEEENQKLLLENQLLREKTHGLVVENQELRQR
molecule,measurement,setting,value
AETDQLENRVKDLKKKNESLKEEKRQASNKYKALLTNNRSLKVKA [XBP1-d2],Kd,"XBP1; 37°C, mean or single, read-out: Kd",≥ 5000 nM
same,binding to XBP1,"XBP1; 4, 23 or 37°C",did not bind detectably
XBP1 bZIP (from UniProt P17861),Kd,XBP1 bZIP (Homo sapiens),8 nM
NLVAQLEKKNEALKAENAALEIERIQLQDKIEELKYELAAIE [ATF3-d2],Kd,ATF3; 37°C,564 nM
KDAASLENKKEELKVQNRILVDERKYLQMMNSELKDELAAHE [ATF3-d3],Kd,ATF3; 4°C,117 nM
same,Kd,ATF3; 37°C,≥ 5000 nM
QRALQLQKEKERLEKMNKKLAAEIESLLEERERLESVLNYHE [JUN-d2],Kd,JUN,1 nM
NDLARLENKAEELKVQNRILVDERKYLQREISELHDELAAHE [ATF3-d1],Kd,ATF3; 37°C,~1000 nM
"ATF5-d1, rhodamine-labelled at the N-terminus (designed binder) GESKEYKKGSGSC(Rhodamine Red C2‑maleimide)GKRIAYLRQRIAELRNENHVLESRIQRMEKEKDALQQDRDHLEYEL",FRET efficiency,[1],0.65
"ATF5: native human bZIP coiled coil (protein, fluorescein at the C-terminus (FRET donor) or TAMRA (FRET acceptor), by assay, native human bZIP coiled coil) MSLLATLGLELDRALLPASGLGWLVDYGKLPPAPAPLAPYEVLGGALEGGLPVGGEPLAGDGFSDWMTERVDFTALLPLEPPLPPGTLPQPSPTPPDLEAMASLLKKELEQMEDFFLDAPPLPPPSPPPLPPPPLPPAPSLPLSLPSFDLPQPPVLDTLDLLAIYCRNEAGQEEVGMPPLPPPQQPPPPSPPQPSRLAPYPHPATTRGDRKQKKRDQNKSAALRYRQRKRAEGEALEGECQGLEARNRELKERAESVEREIQYVKDLLIEVYKARSQRTRSC",Kd,"[2]; Protein2 = CEBPE (HS), intra",27.8 nM
same,Kd,"[2]; Protein2 = CI20 (CI), inter",551 nM
"ATF5-d1, rhodamine-labelled at the C-terminus (designed binder, solubility linker after the His tag; added at the C-terminus for labelling; source: E. coli RP3098, purified (Ni-NTA under denaturing conditions, reverse-phase HPLC)) GESKEYKKGSGSKRIAYLRQRIAELRNENHVLESRIQRMEKEKDALQQDRDHLEYELGC(Rhodamine Red C2‑maleimide)",FRET efficiency,[1],0.31
same,Kd,[3],4.9 ± 1 nM
"ATF2: native human bZIP coiled coil (protein, fluorescein at the C-terminus (FRET donor) or TAMRA (FRET acceptor), by assay, native human bZIP coiled coil) MKFKLHVNSARQYKDLWNMSDDKPFLCTAPGCGQRFTNEDHLAVHKHKHEMTLKFGPARNDSVIVADQTPTPTRFLKNCEEVGLFNELASPFENEFKKASEDDIKKMPLDLSPLATPIIRSKIEEPSVVETTHQDSPLPHPESTTSDEKEVPLAQTAQPTSAIVRPASLQVPNVLLTSSDSSVIIQQAVPSPTSSTVITQAPSSNRPIVPVPGPFPLLLHLPNGQTMPVAIPASITSSNVHVPAAVPLVRPVTMVPSVPGIPGPSSPQPVQSEAKMRLKAALTQQHPPVTNGDTVKGHGSGLVRTQSEESRPQSLQQPATSTTETPASPAHTTPQTQSTSGRRRRAANEDPDEKRRKFLERNRAAASRCRQKRKVWVQSLEKKAEDLSSLNGQLQSEVTLLRNEVAQLKQLLLAHKDCPVTAMQKKSGYHTADKDDSSEDISVPSSPHTEAIQHSSVSTSNGVSSTSKAEAVATSVLTQMADQSTEPALSQIVMAPSSQSQPSGS",Kd,"[2]; Protein2 = ATF6 (HS), intra, 5000 assigned if Kd >5,000 nM or no binding",5000 nM
same,Kd,"[2]; Protein2 = CE20 (CE), inter, 5000 assigned if Kd >5,000 nM or no binding",5000 nM
